Test results reported in publication PMC11242853, “The Antimicrobial Activity of Human Defensins at Physiological Non-Permeabilizing Concentrations Is Caused by the Inhibition of the Plasma Membrane H^+-ATPases” (International Journal of Molecular Sciences, 2024).

Legend:
[1] = system: Candida albicans ATCC 10231; assay: Antimicrobial spread-plate (CFU) killing assay, C. albicans; assay type: cell-based
Procedure: (§1) To determine whether the above microbicidal concentrations exert a permeabilizing effect on fungal and bacterial membranes, the influx of the fluorescent nucleic acid-binding dye propidium iodide (PI) in cells incubated with the peptides was assessed. In cells, dye uptake reflects membrane permeabilization, as PI itself cannot permeate through an intact phospholipid bilayer. […] To select an antimicrobial but non-permeabilizing concentration of each peptide for further assays, we defined as a non-permeabilizing inhibitory concentration (NPIC) the antimicrobial inhibitory concentration (≤10% viable cells) that permeabilized ≤ 10% of cells incubated (90 min at 37 °C) in buffer solution.
(§2) Microbial susceptibility to the peptides was determined in a spread-plate assay as described previously. Briefly, cell suspensions (10^6 cells/mL) in Tris buffer (10 mM Tris-HCl, pH 7.4) were incubated for 90 min at 37 °C with 2-fold serial peptide dilutions. Peptide concentrations ranged from 0 to 2 μM. After incubation, the number of viable cells was determined by plating aliquots (100 μL) in duplicate on plates (SDA for C. albicans, TSA for P. aeruginosa, and M17G agarified medium for L. lactis) that had been dried for 30 min at room temperature in a laminar flow hood. Plates were incubated for 24–48 h at 30 °C (C. albicans and L. lactis) or 24 h at 37 °C (P. aeruginosa). Dilutions yielding 50–200 colonies were counted. Cell viability values, expressed as colony-forming units (CFUs), were calculated relative to the incubation without added peptides and represent the means ± standard deviation (SD) from duplicates of three independent experiments. For inhibition assays, unless otherwise noted, cell suspensions were preincubated (15 min at 37 °C) with the appropriate inhibitor prior to the addition of peptides, but the inhibitor was present throughout the incubation period with the peptide (90 min at 37 °C). Other specific experimental conditions are described as appropriate. In some experiments, the concentrations of human lactoferrin against C. albicans (5 μM), P. aeruginosa (1 μM), and L. lactis (0.065 μM) were used in the control assays. In various viability assays, BM2 peptide (0.25 μM), CCCP (50 μM), colistin (4 μg/mL), nystatin (50 μM), oligomycin A (16 μg/mL), piericidin A (32 μM), and TEA (10 mM) were used.

C. albicans cells [2] = assay: Oxygen consumption measurement (polarographic), C. albicans; assay type: cell-based, Candida albicans; conditions: after 30 min; defensins 2 x NPIC, human lactoferrin 20 μM, piericidin A 32 µM; preincubated 15 min at 37 °C; untreated cells 94% ± 2%; means ± SD, three experiments
Procedure: (§3) Oxygen consumption by C. albicans and P. aeruginosa cells was determined by polarographically using a biological oxygen monitor (dual digital-model 20; Rank Brothers Ltd., Cambridge, UK) at 25 °C. The apparatus consisted of a twin water-jacketed closed sample chamber, which enabled a control experiment to be conducted concurrently. The cells were grown to mid-log phase in SDB (C. albicans) or TSB (P. aeruginosa), washed twice in Tris buffer, and resuspended in the same buffer. Cell suspensions (approximately 10^7 cells/mL) were preincubated with defensins (2 x NPIC), human lactoferrin (20 μM), or piericidin A (32 μM) for 15 min at 37 °C. Oxygen consumption was recorded at 5-min intervals for a period of 30 min. Three independent experiments were performed, and the data are means ± SD.

C. albicans cells [3] = assay: Membrane potential monitoring with DiBAC4(3), flow cytometry; assay type: cell-based, Candida albicans; conditions: peptides at NPIC, hLf 5 μM, BM2 0.25 μM; DiBAC4(3) 1 µg/mL
Procedure: The membrane potential-sensitive probe DiBAC4(3) was used to monitor the transmembrane electrical potential of C. albicans cells as previously described with slight modifications. Briefly, cells were harvested from mid-log phase cultures via centrifugation and suspended in Tris buffer. The cell suspension was adjusted to 10^6 cells/mL and then incubated with DiBAC4(3) at a final concentration of 1 µg/mL for 30 min. Fluorescence was measured using a CytoFLEX S flow cytometer (Beckman Coulter) with excitation at 561 nm and emission at 690/50 nm. For each treatment, 5000 events were counted per experiment with an exposure time of 1000 ms. Results were analyzed using CytExpert 2.1 Acquisition software. As positive controls, human lactoferrin and BM2 peptide were used. Three independent experiments were performed and data are expressed as means ± SD.

[4] = system: Pseudomonas aeruginosa PAO1; assay: Antimicrobial spread-plate (CFU) killing assay, P. aeruginosa; assay type: cell-based
Procedure: as §1
as §2, with “In some experiments, the concentrations of human lactoferrin against C. albicans (5 μM), P. aeruginosa (1 μM), and L. lactis (0.065 μM) were used in the control assays. In various viability assays, BM2 peptide (0.25 μM), CCCP (50 μM), colistin (4 μg/mL), nystatin (50 μM), oligomycin A (16 μg/mL), piericidin A (32 μM), and TEA (10 mM) were used.” left out

P. aeruginosa cells = assay: Oxygen consumption measurement (polarographic), P. aeruginosa; assay type: cell-based, Pseudomonas aeruginosa; conditions: after 30 min; defensins 2 x NPIC, human lactoferrin 20 μM, piericidin A 32 µM; preincubated 15 min at 37 °C; untreated cells 83% ± 2%; means ± SD, three experiments
Procedure: as §3

Pma1p H^+-ATPase = conditions: Table 2; no reference given
Procedure: A whole-cell proton transport assay was used to evaluate the possible inhibition of the fungal Pma1p H^+-ATPase by defensins.
To measure proton pumping from Pma1p H^+-ATPase activity, a glucose-induced acid extrusion assay was performed as previously described with modifications. Briefly, cultures of C. albicans cells were grown to mid-log phase in SDB medium and washed twice in 100 mM Tris-HCl (pH 8.0). The cells were then resuspended in 50 mM KCl and maintained for 18 h at 4 °C to reduce metabolic activity to a minimum (starvation conditions). To determine external acidification, starved cells (approximately 10^7 cells/mL) were incubated for 15 min at 37 °C in the presence or absence of the defensins (2 x NPIC). Cells incubated with 20 µM human lactoferrin or 0.5 µM BM2 peptide were used as positive controls. The initial pH of the cell suspension was adjusted to approximately pH 6.8 with HCl, and glucose (final concentration of 2.5 mM) was immediately added to the cell suspension. The pH of the medium was recorded at 5-min intervals for 20 min using a SevenMulti S50-K pH meter (Mettler-Toledo, Greifensee, Switzerland) with a calibrated electrode (InLab 413, Mettler-Toledo) under constant stirring. Each experiment was repeated three times in an independent manner.

[5] = antimicrobial concentration (≤10% viable cells) that permeabilized ≤10% of cells, 10^6 cells/mL, Tris buffer pH 7.4, 90 min at 37 °C, from Figure 1 data, duplicates of three experiments

B1: human lactoferrin: Recombinant human apo-lactoferrin (hLf), 691 amino acid γ-core protein that inhibits microbial PM H+-ATPases; control (protein, UniProt P02788 20-710, looked up)
Lactotransferrin: GRRRSVQWCAVSQPEATKCFQWQRNMRKVRGPPVSCIKRDSPIQCIQAIAENRADAVTLDGGFIYEAGLAPYKLRPVAAEVYGTERQPRTHYYAVAVVKKGGSFQLNELQGLKSCHTGLRRTAGWNVPIGTLRPFLNWTGPPEPIEAAVARFFSASCVPGADKGQFPNLCRLCAGTGENKCAFSSQEPYFSYSGAFKCLRDGAGDVAFIRESTVFEDLSDEAERDEYELLCPDNTRKPVDKFKDCHLARVPSHAVVARSVNGKEDAIWNLLRQAQEKFGKDKSPKFQLFGSPSGQKDLLFKDSAIGFSRVPPRIDSGLYLGSGYFTAIQNLRKSEEEVAARRARVVWCAVGEQELRKCNQWSGLSEGSVTCSSASTTEDCIALVLKGEADAMSLDGGYVYTAGKCGLVPVLAENYKSQQSSDPDPNCVDRPVEGYLAVAVVRRSDTSLTWNSVKGKKSCHTAVDRTAGWNIPMGLLFNQTGSCKFDEYFSQSCAPGSDPRSNLCALCIGDEQGENKCVPNSNERYYGYTGAFRCLAENAGDVAFVKDVTVLQNTDGNNNEAWAKDLKLADFALLCLDGKRKPVTEARSCHLAMAPNHAVVSRMDKVERLKQVLLHQQAKFGRNGSDCPDKFCLFQSETKNLLFNDNTECLARLHGKTTYEKYLGPQYVAGITNLKKCSTSPLLEACEFLRK
modifications: apo form
notes: control
- effect of high extracellular K+ on candidacidal activity ([1]; 50 mM KCl, defensins at NPIC, hLf 5 μM, BM2 0.25 μM, nystatin 50 μM): significantly decreased
- non-permeabilizing inhibitory concentration (NPIC), C. albicans [1, 5]: 5 µM
- effect of piericidin A on candidacidal activity ([1]; cells preincubated 15 min at 37 °C with 32 µM piericidin A, then peptides (NPIC) 90 min): significantly (p < 0.001) inhibited
- effect of oligomycin A on candidacidal activity ([1]; preincubated 15 min at 37 °C with 16 μg/mL oligomycin A, peptides at NPIC): significantly reduced
- effect of Tok1p inhibition (TEA) on candidacidal activity ([1]; preincubation 15 min at 37 °C with 10 mM TEA+, peptides at NPIC): reduced
- oxygen consumption percentage of C. albicans (C. albicans cells [2]): 90% ± 3%
- transmembrane electrical potential (DiBAC4(3) fluorescence) (C. albicans cells [3]): increase in DiBAC4(3) fluorescence
- effect of high extracellular K+ on pseudomonacidal activity ([4]; 50 mM KCl, defensins at NPIC, hLf 1 μM, colistin 4 μg/mL): decreased
- non-permeabilizing inhibitory concentration (NPIC), P. aeruginosa [4, 5]: 1 µM
- effect of CCCP on bactericidal activity, P. aeruginosa ([4]; preincubated 15 min at 37 °C with 50 µM CCCP at pH 7.4, peptides at NPIC): slightly reduced
- O2 consumption of P. aeruginosa (P. aeruginosa cells): 87% ± 2%
- Inhibition of H^+-extrusion (yeast) (Pma1p H^+-ATPase): Yes
